Laboratory results: publication PMC4380928

Columns and labels:
Test in all cases: peptide microarray probed with GST protein
Details in all cases: reference: unphosphorylated Y124 15-mer; sites Y124
[1] = target: GRB2 1-217 (UniProt P62993)
[2] = target: GRB2 SH2, 75-160 (UniProt P62993)
[3] = target: PIK3R3 (p55γ) 1-461 (UniProt Q92569)

Measured: binding against the reference

TSPAN2 (tetraspanin 2) 15-mers, each centred on one tyrosine (from UniProt O60636) pY124 15-mer
gained: all assays above
